{
  "source": "patent US20140123330",
  "test_system": "btGDF83.1 TALEN pair (synthetic (TALE-FokI))",
  "assay": "cell_activity",
  "conditions": "SURVEYOR; bovine fibroblasts; active at 30 and 37 C; pair called btGDF8.1 and btGDF83.1",
  "data": [
    {"substance": "bovine GDF8 exon 3 target", "values": [
      {"measurement": "activity (% chromosomes cleaved)", "value": "< 16"}
    ]}
  ]
}
